The source of these data is US20100291078A1 (published 2010).

In general, EC50 refers to the concentration needed to bring the measured effect to its halfway point. High values mean weaker potency, low ones greater potency.

The target in one experiment is T1, human CD38 on cells (human, UniProt P28907 1-300).
T1 construct: whole, on cells; The species is stated for the CHO-K1 transfectants; also called CHO-K1 cells recombinantly expressing human CD38; CD38 expressing RPMI8226 cell
Nature of the experiment: FACS titration on CD38 expressing RPMI8226 cells.

The target of the next experiment is T2, human CD38-Fc (human, UniProt P28907 43-300, limits assumed).
T2 construct: not shown: Fc part
Nature of the experiment: SPR (Biacore 3000), CD38-Fc immobilized, 1:1 fit, apparent.

B1: MOR03080 IgG1 (antibody, V domains shown)
VH: QVQLVESGGGLVQPGGSLRLSCAASGFTFSSYGMHWVRQAPGKGLEWVSNIYSDGSNTFYADSVKGRFTISRDNSKNTLYLQMNSLRAEDTAVYYCARNMYRWPFHYFFDYWGQGTLVTVSS
VL: DIELTQPPSVSVAPGQTARISCSGDNIGNKYVSWYQQKPGQAPVVVIYGDNNRPSGIPERFSGSNSGNTATLTISGTQAEDEADYYCSSYDSSYFVFGGGTKLTVLG
On to B1, for which, in the experiment with human CD38 on cells, the EC50 came out at 0.4 nM. For the same molecule, the Kd in the experiment with human CD38-Fc came to 3 nM.
